Each block holds one compound with its values, some of them ahead of it.
What was measured:
SdiA (6His-SdiA) = molecular target: T1, SdiA (6His-SdiA) (Photorhabdus laumondii, UniProt Q7N9K5); experiment: nanoDSF thermal shift (intrinsic Trp fluorescence […] nm); format: binding; settings: 10 nM ligand; 0.3 mg/mL SdiA; 1.5 °C/min; versus solvent control
T1 construct: gene plu0320

[1] = test system: T2, SdiA (LuxR solo, 6His-SdiA) (Photorhabdus luminescens DJC), ORF:60ed44fe; experiment: SPR; settings: SPR Biacore T200, SA chip, HBS-EP+ (10 mM HEPES pH 7.4, 150 mM NaCl, 3 mM EDTA, 0.005% Tween-20), SdiA 1.5625-200 nM, 30 uL/min, 1:1 fit; temperature not …
T2 sequence: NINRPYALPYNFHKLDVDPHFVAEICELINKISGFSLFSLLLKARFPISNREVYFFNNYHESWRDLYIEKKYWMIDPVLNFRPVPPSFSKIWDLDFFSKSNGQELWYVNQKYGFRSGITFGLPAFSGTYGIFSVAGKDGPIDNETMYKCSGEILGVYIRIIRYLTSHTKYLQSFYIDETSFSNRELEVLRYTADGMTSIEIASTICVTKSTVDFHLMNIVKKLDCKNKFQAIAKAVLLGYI

[2] = test system: SdiA (LuxR solo, 6His-SdiA) (Photorhabdus luminescens DJC); experiment: SPR; settings: SPR Biacore T200, SA chip, HBS-EP+ (10 mM HEPES pH 7.4, 150 mM NaCl, 3 mM EDTA, 0.005% Tween-20), SdiA 1.5625-200 nM, 30 uL/min, 1:1 fit, temperature not …

T1 sequence (Q7N9K5 entry or part of it): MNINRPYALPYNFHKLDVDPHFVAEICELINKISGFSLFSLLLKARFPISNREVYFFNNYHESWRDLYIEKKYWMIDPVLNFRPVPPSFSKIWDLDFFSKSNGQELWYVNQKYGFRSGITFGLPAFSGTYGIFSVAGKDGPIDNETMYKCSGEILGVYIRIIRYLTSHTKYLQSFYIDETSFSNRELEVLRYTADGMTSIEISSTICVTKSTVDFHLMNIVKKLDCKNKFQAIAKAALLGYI

DTM (SdiA (6His-SdiA)): −3.9 °C
Compound: CCCC(=O)N[C@H]1CCOC1=O [C4-AHL]

DTM (SdiA (6His-SdiA)): +1.6 °C
Compound: CCCCCCCCCCCC(=O)N[C@H]1CCOC1=O [C12-AHL]

Compound: GACACCTCTTTACATATTTAAACTATTTATTGGGAATCGAAAGGTTATTTTGCTTACTCATTATTATTCTAATAACTTTCTTTTTATATAATTAACTATTAAAGTTGAAACAGCTACTGGGATAAATCATAGTTTATATGGGAAAATTACTCATATATTTATTAGGTATTGCTTCATATAG (double strand) [PaidA promoter fragment]
Kd [1]: 4.4 nM

Compound: GTCATTATTCGCTGTTCACTCATCTTTTAATGGCACAATAAGCCCTGACTTTTTACTTTAATTACCCGCTTTAGATCGAGAGGGCTATGTTAGGGTGGCAGTCTAAAAATATGCCGTATATTACTTTGGGTTAATATGGCATTGAATGGCGTAGGTTATAGGGTGGTTTAACACGAGGTTTTT (double strand) [PfliE promoter fragment]
binding [1]: no binding

Compound: PaidA promoter fragment
Kd ([2]; 3.3% (v/v) plant root exudate (PRE), ka 8.2e4 /M/s, kd 1.1e-3 /s): 13.3 nM
Kd ([2]; no ligand, ka 3.9e5 /M/s, kd printed 1.7 x 103 /s (1.7e-3 from Kd)): 4.4 nM

Compound: PsdiA promoter fragment
Kd ([2]; 3.3% (v/v) plant root exudate (PRE), ka 1.8e5 /M/s, kd 2.0e-2 /s): 109 nM
Kd ([2]; no ligand, ka 1.1e5 /M/s, kd 3.1e-3 /s): 27.4 nM

— PMC10143992, “Interkingdom Signaling of the Insect Pathogen Photorhabdus luminescens with Plants Via the LuxR solo SdiA” (Microorganisms, 2023)
